Results published in patent US12371725.

System: Cre recombinase (Bacteriophage P1?)
Assay: cleavage_in_vitro
Details: 73 nM Cre, 37 C, 30 min; approximate value; ethidium bromide inhibits

Q: Which activity (% recombination) does the source give for “pLoxFL BamHI digest (linear, two loxP sites)” here?
A: Its activity (% recombination) is 74.
